Biological target: LecB-biotin (Pseudomonas aeruginosa lectin LecB, biotinylated) (Pseudomonas aeruginosa) (UniProt Q9HYN5)
Assay: pull-down

β1-integrin (glycosylated, endogenous in MDCK cells) (receptor)
percent of total β1-integrin extracted by LecB-biotin: 75%

— publication doi:10.1101/2019.12.12.872739
